In PMC6270800, “The Effect of Mini-PEG-Based Spacer Length on Binding and Pharmacokinetic Properties of a ^68Ga-Labeled NOTA-Conjugated Antagonistic Analog of Bombesin” (Molecules, 2014):

Tests used:
[1] = type: physicochemical; settings: pH 7.4
Protocol: Aliquots of 50 μL were taken from each phase, and their radioactivity was measured in an automated gamma-counter with 3-inch NaI(Tl) detector (1480 WIZARD, Wallac OyTurku, Finland). Each measurement was repeated nine times. The distribution coefficient was calculated as the average log of a ratio of the radioactivity in the octanol and the PBS fractions.

in vivo = settings: female, NMRI, mouse, iv, 45 pmol, total radioactivity
Protocol: The biodistribution of ^68Ga-labeled NOTA-PEGn-RM26 was evaluated in female NMRI mice (weight: 30 ± 3 g).
Female NMRI mice (3 mice per data point) were injected with 45 pmol of ^68Ga-NOTA-PEGn-RM26 (350 or 700 kBq, 100 µL in PBS) into the tail vein. The administrated peptide dose was adjusted to 45 pmol by dilution with non-labeled NOTA-PEGn-RM26. The mice were euthanized at 1 and 2 h p.i. by intraperitoneal injection of a Ketalar-Rompun solution (10 mg/mL Ketalar and 1 mg/mL Rompun; 20 µL of solution per gram of body weight). Blood samples were collected by heart puncture. The organs of interest were collected, weighed, and their radioactivity content was measured in the gamma-counter. The organ uptake values are expressed as %ID/g except for gastrointestinal (GI) tract (with content) and carcass in which data are presented as %ID per whole sample.

PC-3 cells = experiment: Cellular uptake and internalization assay, PC-3 cells; type: cell-based, human; settings: ^111In-labeled, 24 h continuous incubation, 2 nM, 37 °C
Protocol: (§1) GRPR expressing human PC cell line PC-3 and human BC cell line BT-474 (ATCC) were cultured in RPMI media complemented with 10% FBS, 2 mM L-glutamine and PEST (penicillin 100 IU/mL) (all from Biochrom AG, Berlin, Germany). This media is referred as complete media in the text. In all in vitro experiments, cells were incubated in complete medium and detached using trypsin-EDTA solution (0.25% trypsin, 0.02% EDTA in buffer; Biochrom AG). All experiments were performed in triplicate and 1 × 10^6 cells/dish were seeded one day before the experiment.
(§2) At predetermined time points, the incubation media was discarded, the cells were washed and the membrane-bound and internalized radioactivity were collected using the method described earlier.

BT-474 cells = experiment: Cellular uptake and internalization assay, BT-474 cells; type: cell-based, human; settings: ^111In-labeled; BT474 cells; 24 h continuous incubation, 2 nM, 37 °C
Protocol: as §1, §2

BT-474 xenografts = type: in vivo, BALB/c nu/nu mice; settings: BT-474 tumors; 2 h p.i.
Protocol: (§3) To study tumor targeting, female BALB/c nu/nu mice bearing PC-3 and BT-474 xenografts (4 mice per data point) were intravenously injected with 45 pmol of ^68Ga-NOTA-PEG3-RM26 (700 kBq, 100 µL in PBS). The mice were euthanized at 2 h p.i. and the organ radioactivity content was measured and evaluated as described above. To test the in vivo binding specificity, a group of animals was co-injected with 20 nmol of unlabeled peptide, and biodistribution was measured at 2 h p.i.

PC-3 xenografts = type: in vivo, BALB/c nu/nu mice; settings: PC-3 tumors; 2 h p.i.
Protocol: as §3

SMILES | LogD of ^68Ga-NOTA-PEGn-RM26 [1] | tissue uptake dose at 1 h (in vivo; Uptake in GI (with content)) [%ID] | tissue uptake dose at 2 h (in vivo; Uptake in GI (with content)) [%ID] | tissue uptake dose at 1 h (in vivo; Uptake in carcass) [%ID] | tissue uptake dose at 2 h (in vivo; Uptake in carcass) [%ID] | logD [1] | Internalization rate, % internalized radioactivity from total cell associated (PC-3 cells) [%] | Internalization rate, % internalized radioactivity from total cell associated (BT-474 cells) [%] | Decrease of tumor uptake by co-injection of non-labeled peptide (BT-474 xenografts) | Decrease of tumor uptake by co-injection of non-labeled peptide (PC-3 xenografts) [fold]
CC(C)C[C@H](NC(=O)C[C@H](O)[C@H](CC(C)C)NC(=O)[C@H](Cc1c[nH]cn1)NC(=O)CNC(=O)[C@@H](NC(=O)[C@H](C)NC(=O)[C@H](Cc1c[nH]c2ccccc12)NC(=O)[C@H](CCC(N)=O)NC(=O)[C@@H](Cc1ccccc1)NC(=O)COCCOCCNC(=O)CN1CCN(CC(=O)O)CCN(CC(=O)O)CC1)C(C)C)C(N)=O [PEG2] | −2.27 ± 0.07 | 4 ± 2 | 2.88 ± 0.06 | 4 ± 1 | 0.9 ± 0.4 | – | – | – | – | –
CC(C)C[C@H](NC(=O)C[C@H](O)[C@H](CC(C)C)NC(=O)[C@H](Cc1c[nH]cn1)NC(=O)CNC(=O)[C@@H](NC(=O)[C@H](C)NC(=O)[C@H](Cc1c[nH]c2ccccc12)NC(=O)[C@H](CCC(N)=O)NC(=O)[C@@H](Cc1ccccc1)NC(=O)CCOCCOCCOCCNC(=O)CN1CCN(CC(=O)O)CCN(CC(=O)O)CC1)C(C)C)C(N)=O [PEG3] | – | 3.7 ± 0.8 | 2.5 ± 0.7 | 2.1 ± 0.4 | 0.7 ± 0.1 | -2.47 ± 0.06 | 31 ± 2 | 32 ± 2 | – | –
CC(C)C[C@H](NC(=O)C[C@H](O)[C@H](CC(C)C)NC(=O)[C@H](Cc1c[nH]cn1)NC(=O)CNC(=O)[C@@H](NC(=O)[C@H](C)NC(=O)[C@H](Cc1c[nH]c2ccccc12)NC(=O)[C@H](CCC(N)=O)NC(=O)[C@@H](Cc1ccccc1)NC(=O)CCOCCOCCOCCOCCNC(=O)CN1CCN(CC(=O)O)CCN(CC(=O)O)CC1)C(C)C)C(N)=O [PEG4] | – | 3.5 ± 0.6 | 3.1 ± 0.9 | 2.3 ± 0.5 | 1.2 ± 0.3 | -2.49 ± 0.1 | – | – | – | –
CC(C)C[C@H](NC(=O)C[C@H](O)[C@H](CC(C)C)NC(=O)[C@H](Cc1c[nH]cn1)NC(=O)CNC(=O)[C@@H](NC(=O)[C@H](C)NC(=O)[C@H](Cc1c[nH]c2ccccc12)NC(=O)[C@H](CCC(N)=O)NC(=O)[C@@H](Cc1ccccc1)NC(=O)CCOCCOCCOCCOCCOCCOCCNC(=O)CN1CCN(CC(=O)O)CCN(CC(=O)O)CC1)C(C)C)C(N)=O [PEG6] | −2.50 ± 0.09 | 2.8 ± 0.2 | 1.8 ± 0.5 | 3 ± 1 | 0.71 ± 0.05 | – | 35 ± 2 | – | – | –
CC(C)C[C@H](NC(=O)C[C@H](O)[C@H](CC(C)C)NC(=O)[C@H](Cc1c[nH]cn1)NC(=O)CNC(=O)[C@@H](NC(=O)[C@H](C)NC(=O)[C@H](Cc1c[nH]c2ccccc12)NC(=O)[C@H](CCC(N)=O)NC(=O)[C@@H](Cc1ccccc1)NC(=O)COCCOCCNC(=O)CN1CCN(CC(=O)O)CCN(CC(=O)O)CC1)C(C)C)C(N)=O [^68Ga-NOTA-PEG2-RM26, metal not drawn] | – | – | – | – | – | -2.27 ± 0.07 | – | – | – | –
CC(C)C[C@H](NC(=O)C[C@H](O)[C@H](CC(C)C)NC(=O)[C@H](Cc1c[nH]cn1)NC(=O)CNC(=O)[C@@H](NC(=O)[C@H](C)NC(=O)[C@H](Cc1c[nH]c2ccccc12)NC(=O)[C@H](CCC(N)=O)NC(=O)[C@@H](Cc1ccccc1)NC(=O)CCOCCOCCOCCNC(=O)CN1CCN(CC(=O)O)CCN(CC(=O)O)CC1)C(C)C)C(N)=O [^68Ga-NOTA-PEG3-RM26, metal not drawn] | – | – | – | – | – | – | – | – | more than 7 fold | ~5
CC(C)C[C@H](NC(=O)C[C@H](O)[C@H](CC(C)C)NC(=O)[C@H](Cc1c[nH]cn1)NC(=O)CNC(=O)[C@@H](NC(=O)[C@H](C)NC(=O)[C@H](Cc1c[nH]c2ccccc12)NC(=O)[C@H](CCC(N)=O)NC(=O)[C@@H](Cc1ccccc1)NC(=O)CCOCCOCCOCCOCCOCCOCCNC(=O)CN1CCN(CC(=O)O)CCN(CC(=O)O)CC1)C(C)C)C(N)=O [^68Ga-NOTA-PEG6-RM26, metal not drawn] | – | – | – | – | – | -2.5 ± 0.09 | – | – | – | –
